# Results taken from the NTF2 design screens of Basanta et al. (2020).
# Test: protease stability score; higher = more stable; yeast display proteolysis, trypsin and chymotrypsin;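 also: relative to predicted unfolded state with 0 unfolded-like and 1 meaning tenfold more protease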
row,Sequence,protease stability score
1,DEDEEASKIFWEIWLHNVRTGDEHAINELVDPHVKMVYGDKTFHGMKMLERLYRELGVKHMEVRLDDERLINGVLTLDTRLIIRVDGRTIDIKTEIIALKVNGKWVVKSITYR,1.1
2,DEDEEATRYALELMKKMHETGDEDSIKHLMDPHTKMDVNGVIFHGREAFHVWLNRFDVIRRFNIKHMKSVGDFLHIEGELDSEVNGKRIVTEVRIVSFKFNGRWHLSSTKIL,1.53
3,DEDEEAVRHVVEEWFKFLLTGDEESFEKMFDPSARLIIGDKHYHGRDLLSHVLRELRFKEHRIHDMEIRVVNGKAEVIIHGHEVGIWNGVESESHSEIIIIIDKYDGRWHFHSVEIIFR,2
4,DEDEEDAHRAVQKLTEVINTGDWETFEKFADPNTRFEYGNFHIHGREVIRHFWLHEVEKFKNITIFIRHVQVINGRVESHGENRFNGKSYHFHIIFRKFNGRWHLERIHLE,1.61
5,DEDEEDAQEILKRFVHANETGDWRILEELIDPNARYEQGDKHLVGREEVLRRMIELGIKHTYIHSFSVQGDKLRLDTSIQFENHRVKTHLILNKINGRWVIKSIHIH,1.91
6,DEDEEDARIAWEILVRVWKTGDEEELMKMADPNTRLEINGREFHGREHYLHMSRELRVERVDVRRLEVFDGKVHLEGESHMEVNGKRRTHKVVHIMRKIDGRWHIEYFIVH,1.31
7,DEDEEDARRFLEILQHHMRTGDWDSLYRLLDPHVRLHIGDKHHHGREEIRKHLHHLRFKELENRHITVYDGRMHVHGRIQGKFDGRDDKYESEIVVLKVDGQWLIEEIHVK,2.06
8,DEDEEDIRKAVKDFSENFQTGDEDRFKELADPNDRMHVNGREVHGRENIVKSLREEWKRLGVDHIHFEVRRITVQGEKIIVFSFLRIDNENERHHEDVLIIMRKVDGRWMIRTIRVR,1.45
9,DEDEEDKKWMSEHLENLIHTGDEENLLKLVDPHAKVLVDGRTRHGRETLETWLDRFLRELGVDRVESRITHFDRIDGKVHVIMSIHVNGVDFISHSISQKVNGRWVIRSLHYDER,0.587
10,DEDEEDMRHALELIYRTFETGDERTTEELMDPHARIDIGEFKLHGREEAVEFYRLLLRKVKNLTIKIHHVEVYGEKITIDGRIDFDGRKRRVIILVEKVDGKWVINEIRVH,1.42
11,DEDEEDVDRVSRRWARAMTTGDEDELRELLDPNTRYVQGDKHLHGRTQFERHLREMRFIIHDVRVDNITIIDGRMHIHGHVVGELRTEDHEHHFIFRFHLIVMKINGKWLIKHVDVQ,0.819
12,DEDEEEAEERVKEWIKALRTGDEDHILELVDPNDRFIINGVHLHGREFLLRWLRELRVDDVEVKTIKFVDGVAHVDTKMRVTVDGRETELETRLIWKKFDGRWFIESHRIR,1.62
13,DEDEEEAEKFFWTWVESVLTGDEDMLHHLVDPNVRYSQGEKQIHGRESVVKFMSEARVDSIRIKSMHIFNGRINIDSEIDGVINGKRTRIKVHLYILKVDGRWLMQSIEVK,2.03
14,DEDEEEAKEFLRIYIEALRTGDEDLWKEMADPNMRLIVGDKERHGRESYTHWERELGYRLEHIHIDHVTFQGDKVDVETTLRIHINGQTHDVEIHLIVTKIDGRWHMKEIIIK,1.08
15,DEDEEEALDFMRLLVESLQTGDEELISRMADPNVLLIVNGVEHVGREFYVKWVKHLVERVDHMEIRLKRIEIYDGRAHLDTEVIFRFNGRELRKKTHLIIEKVDGRWILKSVIVE,2.35
16,DEDEEEARKSFKHLLRSRMTGDEDSLKSLIDPNARFDIDGKELIGREAEELLLEKFKNIKLHDVKLNDWRVDEHHVVWRIELDGFYNGKRDSLDFTLIVKKVNGRWVIHQVKLI,1.39
17,DEDEEEIKRMIEEWFRSLVTGDEHQLKELMDPHVRLDINGVEHIGREEIVERLVKEARQADHMEFRVRDVRLVGDYAEIDGELIVNYNGREKSIETRIILWKFNGRWIDHQVHYK,1.03
18,DEDEEELEKMLHKMLESLRTGDWKDITENLDPHTRFNINGVDFHGRELAHEVLHEWFERYKNIRIFLNTSRTINGRVELILRIEIGDKEEEMRILVIKVDGRWFMDTVDVRTR,2.13
19,DEDEEEMEKMSREISEMLLTGDFDRLLELLDPNYRLRIGDKDLHGREEAKKHMHELFRHLGVDKFEVRLKQVELVDGVIWVHIEQRYDGRDFQIHVINKKIDGRWHVRRVEFE,1.72
20,DEDEEEMHHRIEEHFEYLRTGDWKLIRNLVDPSVRVDVDGKEHHGWHEFVRYAVHIRVRRYELKHIRIIDGQVDFQGRIDGEIDGKFRSFNIFIIAQKIDGRWIFKEVRMH,1.68
21,DEDEEEMRRVVELLVRDHFTGNFEKLKDLFDPNAKSDVDGVSMVGREWLEFLKRYLGADHIEVRVRHEDYYGNKVHFHLEIISRYGDKEIHVDTEMVIDKVDGRWYVRETRFK,0.854
22,DEDEEESRRFTEILLHKFWTGDEDWYRKMADPNDKSVVGDKLFHGRDEVDRAIHEFLRHLGVDHFELHRLEVDHYNGKAEVRSDMILRVNGQERRMILKVHNTKFNGRWTLESVRIESR,0.715
23,DEDEEEVIKFFQEFLRDELTGDWHEVHRMLDPHARLDINGKHFVGREDVTEFFKKLVNELRIHDVHIKDVRIIGEKASIDTSVDGEVNGRKRHFETRIIILKIDGQWFLHEVHMR,1.47
24,DEDEEEVRKFLHLELRSMETGDEHDLRRLADPHVRIHINGVILHGWEFFLETFRKLGFDHLRIEHVEVQGEKVHIKSRFEIGDKSFETEIIIRKVDGRWYVESIIVN,0.873
25,DEDEEEWHRFLELVHHFLRTGDWRRILDLIDPRALVHVGDKTFHGRHAIEHLLRHIHDRIPGMKQSLIIDHHDSQGDKIHLDVTLDLHFNGVEYHLRERTLELKINGKWVEKVREVD,0.821

row,Sequence,protease stability score
1,DEDEEEYRRMHEILDDALETGDEHTISRMADPHVRNEINGVKLHGREIWFEYMKRLLDHLGVDNIKIKIRLRHIDRQGDKVLSETRLHVYFNGVEERRRTSQVWLKIDGQWHLHHVSVE,0.869
2,DEDEEFAENVVERTIHHTQTGDWRMLKHLLDPHVRMNIDGQELHGREQWIRFMEQIKGATLELHIEDFDSQGEKLTLHVRTILVFDGRKYERHVDLLILKVDGRWHIHQFIVR,1.41
3,DEDEEFAKELLERTAESIVTGDEDMWREYFDPHARIEFNGKDYHGWHEFERMLRELRVHRVEVEVKRVHLYDGRMDVKGELHIKGTFDGRRVEESTDVDYFIIKIDGQWYIRHETII,0.761
4,DEDEEFSKEAFEMVEWVIRTGDERLIEHMMDPNAKILIDGQEFWGRHIFSKHVEELGIDHIDDFQVKDVTFFNGRVNLNGELRGNFNGKETTFELHTIALKVNGQWINHSLEIK,0.658
5,DEDEEFWKELLRLFNEALITGDEDLLSHYADPNTRIRDENHKIHGRERYSRLMVKLGIDHVHLHSFTIIDGVAHIHLEWHQGDKTLDVRSYSRKFNGRWFLTHVRIK,1.05
6,DEDEEHARHMLEIFMHAVITGDEDTLKELVDPNVKLVVNGREFHGWEEYLKVHRHWRMRDAHIKHVEVQGEKVIVDTRLHGRVDGKLTDFRTEIIVRKINGRWHLESERVH,2.13
7,DEDEEHAYRIFKILLESVYTGNEEMLHTLLDPHARLVFDGVHHHGRETVSYMMHHWRVEEFHTHSFHVDIINGVADLKWDGHITGHFNGKRQESRVEIRFFLRKVDGKWLNESVEIIFR,1.49
8,DEDEEIARKIMEMLIEELRTGDEEKSTENADPNVRVHFNGKDLHGWEEFSRLASKFKGLRFILRRMDVFNGRVVIDGEERWDGRTHRVILHIEKVNGRWRIKQVDIH,1.63
9,DEDEEIAVKSYKKIVEDFFTGDEDSARRNADPDVLLRVGDKELHGWKHMTSWVHELRIHRIDIREIRVIGDKMFLHGEVDSEIDGKRLEFHLKLRMEKVDGRWIIRKIEIK,1.49
10,DEDEEIDKHVAKHLEELFLTGDEKRLSQYFDPDVRNEVNGKEFHGRELLLKVLRDFGADHRTVEHREVSLYGEKMRFHIHLRLHVGDKSMTTILHIIIDKVNGRWHFEKIRIDVR,0.798
11,DEDEEIIEKWVKMMLDAAHTGDERIIEENFDPNTRIHVDGQNHHGREHVHELRRRADYIRIILIIRSIRTQGDYVHVKGEIRIRINWNGRELHLEVEVEIIFLKFDGRWHIRSIVSI,0.889
12,DEDEEIRTRSLRLLIQLLITGDEEIFKQLFDPHALVIINGRRHHGWTLLEEYWRRLGADVIKSVELENTDDVNGVLILDMRLHMHINGRDDSQRIHIIATKINGKWRNESIVLS,1.22
13,DEDEEISHRMVRLIMQLMVTGDEESLKEYFDPNTRLFIDGRNNHGRELAVDEIQKHFEELGVDHIEIRIHHKDAQGDFVEIHIRLIIHVGDFEVRSTVHIFVRKVDGRWMIEKIEIK,2.03
14,DEDEEISKRLLKQLIHMLKTGDEDLFWHLFDPDTRLIVGDKEDHGREELAKSIRELWHEIRIERLHLRSIHIIGDFIHLIVRLIRNVNGKKDDINLELIVIKVDGKWRFKEMEIQ,1.44
15,DEDEEITERIIRLLLNAWMTGDEEMLKRLFDPHVRIDQGDKNLIGWEELERETRRIDHIRLDLRIKHIKVYDGRVEINSFLHVDLHINGVTLHHELRMHIIIEKVDGRWIIHSQKLE,1.25
16,DEDEEKAKEAWEDIVRDIETGNEESMEKMLDPNTRLVVGEKERHGWESASKFVRELRHRVDHVELRLKDSKLYNGRVELDGLLIENFNGVEVRHKMIVFILKINGRWHIESVIIH,1.44
17,DEDEEKARKFTELLVRSWRTGDEDSLREMVDPHVRVDVDGVKLHGWHDFMKLVRHIRVRDLHNREFTFFEGRADIIQETDVDIGDKERRTVITIRMTKYDGRWFLHNVTVH,1.38
18,DEDEEKKDEARRLWEENLMTGDEETLFRLADPHVRTVINGVEFHGREEMLKAIRWLRHDLGAKHIDSIHIDSVTIQGDFVIVHGHLRFSIGDKRTDSEVHLHVLKVDGKWYVHEVNIN,-0.183
19,DEDEEKLKEFRDVLLHAISTGDEETIKTLVDPHVRIEIDGKERHGRDKVTKLFRDLGVDHVRLTEVSIIGDKLHLDLRLRYGDKERTMIWIISKINGRWLIHTVETH,1.15
20,DEDEEKVEHISKEYFRSFVTGDEDKLRKLLDPNARVYFNGQTVIGRELATKIVLELRNRQVEVDHLHIEYQGDKARLHQITTIDGHINGRDEWFEFHIEVHLRKVNGKWVIQRSEFEIR,0.252
21,DEDEELAKHAIKHWLEALETGDEKRLKELIDPNTRLIVNGQEFHGMESVSKKLIEEIERIPNVTLELHDVRIYNGRVNTDVTVRYNGRTITLHLIILKVNGKWIMESIQLH,1.78
22,DEDEELAKKAVEEFFTAWETGNEERLEELMDPNVRSHINGVDLHGMERTSEYIRRLGHTKVETYLRRVRVFENRVEVDGDIIVDGRKHKFHLDMRKINGRWFIHRVSVK,2.42
23,DEDEELAKKFIEEWHESVLTGDEDSLRKLADPNMKVNVDGRHMVGWEYYKHLLERIDHLTSIEIKRLRVIDGVIDTDVRMDITFDGKRHLLETQLIVLKVNGRWHLRSISMK,1.36
24,DEDEELALKMLEQWLRDLLTGDEETMVDLLDPNARLEIGDKENHGRDEVRKFWEELKKRFKNVRMEIEVHEIRVIGNKVHSINTLIIIIGDKRIKHHIHVHVVIFNGRVHSVHISIH,1.35
25,DEDEELARKFIKKTSEARETGNEDDFMNLADPNVRQDINGVPIIGREEVSRIISHLRIRMEIRIRDVRIVGEKVELDVHIRMDIDFDGQRIHDKRDVHIILVKIDGKWLLHSVNHR,0.536
